The values that follow come from patent US20210030857A1 (NGM BIOPHARMACEUTICALS, published 2021).

The Kd is a measure of binding affinity in units of concentration.

Substitutions are numbered along the chain they refer to.

Assay [1] has as its target T1, human beta klotho expressed on cells (human, UniProt Q86Z14 1-1044).
T1 construct: also called HuKLB overexpressing cells; Human KLB
T1 sequence: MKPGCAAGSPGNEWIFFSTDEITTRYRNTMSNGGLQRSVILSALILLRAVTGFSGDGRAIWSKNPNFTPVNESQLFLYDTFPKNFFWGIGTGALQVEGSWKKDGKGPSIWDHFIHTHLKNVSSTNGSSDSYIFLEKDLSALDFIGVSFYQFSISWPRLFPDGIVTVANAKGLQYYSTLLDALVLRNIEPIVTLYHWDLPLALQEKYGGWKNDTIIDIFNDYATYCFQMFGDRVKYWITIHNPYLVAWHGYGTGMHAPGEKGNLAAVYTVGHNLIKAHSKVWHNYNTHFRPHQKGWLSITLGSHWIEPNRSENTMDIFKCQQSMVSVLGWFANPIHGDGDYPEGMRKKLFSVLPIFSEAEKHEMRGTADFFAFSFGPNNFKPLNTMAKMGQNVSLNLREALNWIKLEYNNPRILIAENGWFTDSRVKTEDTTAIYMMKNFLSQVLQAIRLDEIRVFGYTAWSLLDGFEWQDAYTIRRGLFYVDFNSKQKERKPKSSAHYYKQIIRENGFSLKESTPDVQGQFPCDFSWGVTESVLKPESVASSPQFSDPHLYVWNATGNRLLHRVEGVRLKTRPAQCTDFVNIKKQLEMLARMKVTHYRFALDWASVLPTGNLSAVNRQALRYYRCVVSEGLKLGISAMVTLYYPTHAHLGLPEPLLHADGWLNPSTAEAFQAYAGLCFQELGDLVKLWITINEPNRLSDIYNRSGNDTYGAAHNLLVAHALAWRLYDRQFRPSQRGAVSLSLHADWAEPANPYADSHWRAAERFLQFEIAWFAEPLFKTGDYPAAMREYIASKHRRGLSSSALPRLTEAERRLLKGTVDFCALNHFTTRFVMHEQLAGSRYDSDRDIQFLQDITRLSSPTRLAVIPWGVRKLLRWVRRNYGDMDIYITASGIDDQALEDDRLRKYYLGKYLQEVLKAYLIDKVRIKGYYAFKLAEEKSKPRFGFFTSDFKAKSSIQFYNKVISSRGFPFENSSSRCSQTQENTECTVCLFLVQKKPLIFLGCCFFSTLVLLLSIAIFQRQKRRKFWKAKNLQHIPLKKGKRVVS
Put plainly: FACS competition on HuKLB-overexpressing cells; row antibody unlabelled; competitor 3I13-Alexa488 (labelled, EC10); MFI of the label. How it is done:
For example, for competition binding assays by FACS analysis, antibody standards were prepared that were conjugated to a fluorochrome using either A488 or A647 antibody labeling kit (Invitrogen) following manufacturer's instructions. A dose titration of the conjugated antibody standard was evaluated using HuKLB overexpressing cells. The plateau of the maximal signal of antibody binding is EC=100 and the background signal is EC=0. Competition by FACS against the fluorochrome labeled antibody was performed by pre-incubating HuKLB overexpressing cells with hybridoma supernatants for 15 minutes at room temperature. Without washing, an EC=10 concentration of A488 or A647 labelled antibody standard was added. EC=10 for an individual antibody was determined by 10% of signal using the maximum signal as (100%) and background signal as (0%). After 30 minutes at 4° C., cells are washed and analyzed by FACS. […] A partial competing antibody is one sample that show signal between labelled antibody alone and background. Antibodies that show complete competition against the same standard antibody are considered to be in the same bin.
Representative results are shown in Table 12 below reported as mean fluorescence intensity (MFI).

The target in assay [2] is T2, cynomolgus monkey beta klotho protein (soluble, used in Biacore) (cynomolgus monkey (Macaca fascicularis), UniProt Q86Z14 53-996 (human entry), limits assumed).
T2 construct: Protein in solution; also called Cyno KLB; cyKLB
T2 chain: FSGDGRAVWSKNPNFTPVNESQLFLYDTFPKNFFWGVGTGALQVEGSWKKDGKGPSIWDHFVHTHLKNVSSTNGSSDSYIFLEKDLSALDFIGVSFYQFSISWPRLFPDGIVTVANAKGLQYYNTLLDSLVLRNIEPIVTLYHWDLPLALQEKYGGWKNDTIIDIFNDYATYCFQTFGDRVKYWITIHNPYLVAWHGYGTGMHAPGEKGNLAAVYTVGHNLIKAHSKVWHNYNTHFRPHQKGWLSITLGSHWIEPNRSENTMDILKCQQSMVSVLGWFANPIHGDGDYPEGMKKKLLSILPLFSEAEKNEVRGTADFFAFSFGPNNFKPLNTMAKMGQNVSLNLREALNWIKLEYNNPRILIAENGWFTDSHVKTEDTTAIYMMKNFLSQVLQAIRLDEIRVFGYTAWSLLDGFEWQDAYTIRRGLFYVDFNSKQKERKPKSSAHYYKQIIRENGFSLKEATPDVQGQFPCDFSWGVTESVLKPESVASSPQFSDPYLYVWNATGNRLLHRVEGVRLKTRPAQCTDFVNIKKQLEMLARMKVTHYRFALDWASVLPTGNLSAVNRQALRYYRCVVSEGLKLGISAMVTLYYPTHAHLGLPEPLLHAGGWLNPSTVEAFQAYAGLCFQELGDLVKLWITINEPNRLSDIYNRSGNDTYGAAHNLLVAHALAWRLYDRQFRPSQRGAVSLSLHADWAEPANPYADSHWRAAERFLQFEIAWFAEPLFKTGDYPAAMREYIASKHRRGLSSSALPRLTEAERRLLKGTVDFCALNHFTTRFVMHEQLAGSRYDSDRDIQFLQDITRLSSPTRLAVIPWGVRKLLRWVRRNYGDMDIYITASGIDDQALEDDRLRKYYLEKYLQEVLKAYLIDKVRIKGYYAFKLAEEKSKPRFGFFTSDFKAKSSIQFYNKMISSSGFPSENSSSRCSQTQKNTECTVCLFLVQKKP
Put plainly: Biacore SPR, antibody captured on anti-mouse Fc, KLB as analyte (1.56-25 nM), 25 C. How it is done: Binding affinity measurements were also made in additional Biacore based assays. For example, equilibrium dissociation constant (KD) measurements were carried out with purified antibodies to evaluate their binding to human beta klotho and cyno beta klotho. As mentioned above, anti-mouse Fc antibody (Sigma-Aldrich, St. Louis, Mo.) was immobilized on all four flow cells of a CM5 chip using amine coupling reagents (GE Healthcare LifeSciences, Piscataway, N.J.). Purified antibodies were captured (˜100 RUs) on flow cells 2, 3 and 4 using flow cell 1 as a reference. This was followed by injection of different concentrations of human or cyno beta klotho (1.56 nM to 25 nM, two-fold dilutions in PBS-P buffer) at a flow rate of 70 μL/min and the binding kinetics were evaluated at 25° C.
(In general: SPR reads the build-up and loss of mass on a sensor chip optically.)

B1: antibody 1C17 (antibody, V domains shown)
VH: QVQLQESGPGLVKPSQSLSLTCSVTGYSITSGYYWNWIRQFPGNKLEWMGYINYDGNSNYTPSLKNRISITRDTSKNQFFLKLNSVTPEDTATYYCARKGAYYSNYDSFDVWGTGTTVTVSS
VL: DIKMTQSPSSMYASLGERVTITCKASQDINSYLSWVQQKPGKSPKTLIYRANRLVDGVPSRFSGSGSGQDYSLTISSLEYEDMGIYYCLQYDEFPFTFGSGTKLEIK
notes: Murine monoclonal antibody
As for B1, in assay [1], the “Mean Florescence Intensity (MFI)” value was 26.7 MFI. This molecule registered a Kd in assay [2] of 3.1 nM.

B2: antibody 3N20 (antibody, V domains shown)
VH: QVQLQESGAELARPGASVKLSCKVSGYIFTNYGISWVKQRTGQGLEWIGEIYPRSGNTYYNEKFKGKATLTADMSSSTAYMDLRSLTSEDSAVYFCARHWDGVLDYFDYWGQGTSLTVSS
VL: DIVMTQSPSSLSVSAGEKVTMSCKSSQSLLNSGNQKNYLAWYQQKPGQPPKLLIYGASTRESGVPDRFTGSGSGTDFTLTISSVQAEDLAVYYCLNDHSYPFTFGAGTKLELK
notes: Murine monoclonal antibody
For the molecule B2, the “Mean Florescence Intensity (MFI)” value in assay [1] stood at 30.5 MFI. In addition, the Kd in assay [2] amounted to 3.52 nM.

B3: antibody 5F7 (antibody, V domains shown)
VH: QVQPQESGPELVKPGALVKISCKASGYTFTRYDINWVKQRPGQGLEWIGWIYPGDISTKYNEKFKGKATLTADKSSSTAYMQLNSLTSENSAVYFCARSDYYGSRSFVYWGQGTLVTVSA
VL: DIVLTQSPASLAVSLGQRATISCRASKSVSTSGYSYMHWYQQKPGQPPKLLIYLASNLESGVPARFSGSGSGTDFTLNIHPVEEEDAATYYCQHSRELPYTFGGGTKVEIK
notes: Murine monoclonal antibody
B3: in assay [1], the “Mean Florescence Intensity (MFI)” value came to 28.5 MFI. Moreover, the Kd in assay [2] stood at 2.5 nM.

B4: antibody 5H23 (antibody, V domains shown)
VH: B3 VH with P4L, E6Q, R31S, I56G, S77R, N84S, V108A
VL: B3 VL with S35V, Y40N, N57Y, T89I, E97D, P99T, Y100F, T101P, V108L
notes: Murine monoclonal antibody from hybridoma; also called 5H23-Alexa647 (labelled form)
On to B4, for which the “Mean Florescence Intensity (MFI)” value in assay [1] came out at 29.8 MFI. In assay [2], this molecule showed a Kd of 0.72 nM.

B5: antibody 2L12 (antibody, V domains shown)
VH: B3 VH with P4L, E6Q, Q39K, I56D, N84S
VL: B3 VL with A12P, M37L, R96G, V108L
notes: Murine monoclonal antibody
As to B5, in assay [1], the “Mean Florescence Intensity (MFI)” value was determined as 30.9 MFI. In addition, the Kd in assay [2] was found to be 1.42 nM.

B6: antibody 3L3 (antibody, V domains shown)
VH: B3 VH with A16T, R31S, I56G, T58P, N61D, N84S
VL: B3 VL with M37V, S69R, R96G, V108L
notes: Murine monoclonal antibody
Regarding B6, the “Mean Florescence Intensity (MFI)” value in assay [1] is 28.7 MFI. Moreover, in assay [2], binding was characterised by a dissociation constant (Kd) of 2.2 nM.

B7: antibody 4P5 (antibody, V domains shown)
VH: B3 VH with P4L, E6Q, Q39K, I56D, N84S
VL: B3 VL with V3L, S69R, Q93H, R96G, V108L
notes: Murine monoclonal antibody
With B7, the “Mean Florescence Intensity (MFI)” value in assay [1] was determined as 30.1 MFI. The molecule further showed a Kd in assay [2] of 0.44 nM.

B8: antibody 1D19 (antibody, V domains shown)
VH: B3 VH with V37M, I56S, Y60F, K63N, G66D, N84S, A92T, V108T
VL: B3 VL with V108L
notes: Murine monoclonal antibody
Turning to B8, the “Mean Florescence Intensity (MFI)” value in assay [1] is 30.6 MFI. In assay [2], this molecule gave a Kd of 2.9 nM.

B9: antibody 5C23 (antibody, V domains shown)
VH: B3 VH with Q39K, I56G, K65E, N84S
VL: B3 VL with A9D, A12T, V108L
notes: Murine monoclonal antibody
For the molecule B9, the “Mean Florescence Intensity (MFI)” value in assay [1] is 29.3 MFI. The Kd in assay [2] worked out at 2.4 nM.
